{"source": "paper PMC9098913", "about": "“In vitro reconstitution of Escherichia coli divisome activation” (Nature Communications, 2022)", "molecules": {"B1": {"name": "FtsA R286W (protein)", "chain": "MIKATDRKLVVGLEIGTAKVAALVGEVLPDGMVNIIGVGSCPSRGMDKGGVNDLESVVKCVQRAIDQAELMADCQISSVYLALSGKHISCQNEIGMVPISEEEVTQEDVENVVHTAKSVRVRDEHRVLHVIPQEYAIDYQEGIKNPVGLSGVRMQAKVHLITCHNDMAKNIVKAVERCGLKVDQLIFAGLASSYSVLTEDERELGVCVVDIGGGTMDIAVYTGGALRHTKVIPYAGNVVTSDIAYAFGTPPSDAEAIKVRHGCALGSIVGKDESVEVPSVGGRPPWSLQRQTLAEVIEPRYTELLNLVNEEILQLQEKLRQQGVKHHLAAGIVLTGGAAQIEGLAACAQRVFHTQVRIGAPLNITGLTDYAQEPYYSTAVGLLHYGKESHLNGEAEVEKRVTASVGSWIKRLNSWLRKEF", "modifications": "Cy3 or Cy5 at the N-terminus in the labelled form (labelled CLEPTGG peptide conjugated to the 5xGly tag by sortagging); unlabelled protein also used; left off: TwinStrep-SUMO, N-terminal, cleaved | 5x"}}, "test": "Diffusion coefficient (Dcoeff) of FtsA from FRAP", "conditions": "for Diffusion Coefficient, mean: Fig. 3j; for Dcoeff: Fig. S3i/S3j, summary value", "excerpt": "We could also use the data from these bleaching experiments to quantify the membrane-binding kinetics and diffusion of membrane-bound proteins by analysing the change of the fluorescence profile during recovery.\nEquimolar concentrations of Cy3- and Cy5-labelled FtsA, supplemented with 20% unlabelled FtsA were used to study FRET and FRAP. Five pre-bleach frames were acquired, followed by acceptor photobleaching of a rectangular ROI with 40% 641 nm laser power and a dwell size of 1 µs/pixel, 75% overlapping lines. The recovery of the signal or the increase in donor intensity were measured with either two frames or one frame per second.\nBleaching the acceptor dye leads to an increase in the donor intensity, which can be used to quantify the Foerster Resonance energy transfer (FRET)[48]. FRET efficiency was quantified with E%=Ipost/Ipost+Ipre⋅100 , where Ipost is the intensity of the […] and Ipre is the […]. […] To extract the contribution of both processes, we adjusted a routine recently published by Gerganova et al.[33]. In short, the code provides the contribution of both modes of recovery by analysing the shape of the fluorescence recovery profile. […] Contribution of diffusion leads to a change of the slope of the outer borders of the bleached region (S4h right). Thus, by measuring the change of the slope of the border recovery, diffusion and simple on/off binding can be distinguished. We developed “FRAPdiff”, a graphical user interface, which uses the original fit routine by David Rutkowski. It can be used directly on.tiff movies with annotated bleach regions as ImageJ ROIs. In addition, we added optional bleach correction, user selectable projection axis (x or y), and optional mirroring of the recovery profiles, if bleaching was not symmetric. The original fit routine for estimating the recovery and diffusion dynamics can be found at https://github.com/davidmrutkowski/1DReflectingDiffusion. FRAPdiff is available at 10.5281/zenodo.6400639[49] under the GPLv3 open-source license.", "data": [{"molecule": "B1", "values": [{"measurement": "Diffusion Coefficient", "setting": "0.4µM FtsA alone, replicate Exp.6", "result": "1.63E-01"}, {"measurement": "Diffusion Coefficient", "setting": "0.4µM FtsA alone, replicate Exp.7", "result": "2.73E-01"}, {"measurement": "Diffusion Coefficient", "setting": "0.4µM FtsA alone, replicate Exp.8", "result": "2.14E-01"}, {"measurement": "Diffusion Coefficient", "setting": "0.4µM FtsA alone, replicate Exp.9", "result": "1.27E-01"}, {"measurement": "Diffusion Coefficient", "setting": "0.4 µM FtsA, FRAP, p-value […] 10^−6", "result": "0.14 ± 0.08", "unit": "µm^2/s"}, {"measurement": "Diffusion Coefficient", "setting": "0.4µM, + FtsN&Z, Mean, n=6 (WT), 9 (R286W)", "result": 0.0079}, {"measurement": "Diffusion Coefficient", "setting": "0.4µM, + FtsN&Z, replicate Exp.1", "result": "3.88E-02"}, {"measurement": "Diffusion Coefficient", "setting": "0.4µM, + FtsN&Z, replicate Exp.2", "result": "8.74E-03"}, {"measurement": "Diffusion Coefficient", "setting": "0.4µM, + FtsN&Z, replicate Exp.3", "result": "4.31E-03"}, {"measurement": "Diffusion Coefficient", "setting": "0.4µM, + FtsN&Z, replicate Exp.4", "result": "3.80E-04"}, {"measurement": "Diffusion Coefficient", "setting": "0.4µM, + FtsN&Z, replicate Exp.5", "result": "1.83E-02"}, {"measurement": "Diffusion Coefficient", "setting": "0.4µM, + FtsN&Z, replicate Exp.6", "result": "1.51E-04"}, {"measurement": "Diffusion Coefficient", "setting": "0.4µM, + FtsN&Z, replicate Exp.7", "result": "1.71E-04"}, {"measurement": "Diffusion Coefficient", "setting": "0.4µM, + FtsN, Mean, n=5 (WT), 6 (R286W)", "result": 0.0457}, {"measurement": "Diffusion Coefficient", "setting": "0.4µM, + FtsN, replicate Exp.1", "result": "2.78E-02"}, {"measurement": "Diffusion Coefficient", "setting": "0.4µM, + FtsN, replicate Exp.2", "result": "2.32E-02"}, {"measurement": "Diffusion Coefficient", "setting": "0.4µM, + FtsN, replicate Exp.3", "result": "3.10E-02"}, {"measurement": "Diffusion Coefficient", "setting": "0.4µM, + FtsN, replicate Exp.4", "result": "1.25E-01"}, {"measurement": "Diffusion Coefficient", "setting": "0.4µM, + FtsN, replicate Exp.5", "result": "3.86E-02"}, {"measurement": "Diffusion Coefficient", "setting": "0.4µM, + FtsN, replicate Exp.6", "result": "2.82E-02"}, {"measurement": "Diffusion Coefficient", "setting": "0.4µM, + FtsZ, Mean, n=5 (WT), 8 (R286W)", "result": 0.0305}, {"measurement": "Diffusion Coefficient", "setting": "0.4µM, + FtsZ, replicate Exp.1", "result": "9.70E-03"}, {"measurement": "Diffusion Coefficient", "setting": "0.4µM, + FtsZ, replicate Exp.2", "result": "1.10E-04"}, {"measurement": "Diffusion Coefficient", "setting": "0.4µM, + FtsZ, replicate Exp.3", "result": "2.57E-02"}, {"measurement": "Diffusion Coefficient", "setting": "0.4µM, + FtsZ, replicate Exp.4", "result": "8.47E-04"}, {"measurement": "Diffusion Coefficient", "setting": "0.4µM, + FtsZ, replicate Exp.5", "result": "3.19E-02"}, {"measurement": "Diffusion Coefficient", "setting": "0.4µM, + FtsZ, replicate Exp.6", "result": "1.28E-01"}, {"measurement": "Diffusion Coefficient", "setting": "0.4µM, + FtsZ, replicate Exp.7", "result": "3.30E-03"}, {"measurement": "Diffusion Coefficient", "setting": "0.4µM, + FtsZ, replicate Exp.8", "result": "4.40E-02"}, {"measurement": "Diffusion Coefficient, mean", "setting": "0.8 µM FtsA + N", "result": "4.39E-02", "unit": "µm2/s"}, {"measurement": "Diffusion Coefficient, mean", "setting": "0.8 µM FtsA + Z&N", "result": "7.03E-03", "unit": "µm2/s"}, {"measurement": "Diffusion Coefficient, mean", "setting": "0.8 µM FtsA + Z", "result": "1.59E-02", "unit": "µm2/s"}, {"measurement": "Diffusion Coefficient", "setting": "0.8µM FtsA alone, Mean, n=19 (WT), 8 (R286W)", "result": 0.1136}, {"measurement": "Diffusion Coefficient, mean", "setting": "0.8 µM FtsA alone", "result": "1.14E-01", "unit": "µm2/s"}, {"measurement": "Diffusion Coefficient", "setting": "0.8µM FtsA alone, replicate Exp.1", "result": "2.82E-01"}, {"measurement": "Diffusion Coefficient", "setting": "0.8µM FtsA alone, replicate Exp.2", "result": "8.82E-02"}, {"measurement": "Diffusion Coefficient", "setting": "0.8µM FtsA alone, replicate Exp.3", "result": "6.72E-02"}, {"measurement": "Diffusion Coefficient", "setting": "0.8µM FtsA alone, replicate Exp.4", "result": "7.30E-02"}, {"measurement": "Diffusion Coefficient", "setting": "0.8µM FtsA alone, replicate Exp.5", "result": "1.01E-01"}, {"measurement": "Diffusion Coefficient", "setting": "0.8µM FtsA alone, replicate Exp.6", "result": "8.47E-02"}, {"measurement": "Diffusion Coefficient", "setting": "0.8µM FtsA alone, replicate Exp.7", "result": "1.13E-01"}, {"measurement": "Diffusion Coefficient", "setting": "0.8µM FtsA alone, replicate Exp.8", "result": "9.93E-02"}, {"measurement": "Diffusion Coefficient", "setting": "0.8µM, + FtsN&Z, Mean, n=5 (WT), 4 (R286W)", "result": 0.0070}, {"measurement": "Diffusion Coefficient", "setting": "0.8µM, + FtsN&Z, replicate Exp.1", "result": "2.90E-03"}, {"measurement": "Diffusion Coefficient", "setting": "0.8µM, + FtsN&Z, replicate Exp.2", "result": "7.64E-03"}, {"measurement": "Diffusion Coefficient", "setting": "0.8µM, + FtsN&Z, replicate Exp.3", "result": "1.38E-02"}, {"measurement": "Diffusion Coefficient", "setting": "0.8µM, + FtsN&Z, replicate Exp.4", "result": "3.70E-03"}, {"measurement": "Diffusion Coefficient", "setting": "0.8µM, + FtsN, Mean, n=4 (WT), 3 (R286W)", "result": 0.0439}, {"measurement": "Diffusion Coefficient", "setting": "0.8µM, + FtsN, replicate Exp.1", "result": "1.96E-02"}, {"measurement": "Diffusion Coefficient", "setting": "0.8µM, + FtsN, replicate Exp.2", "result": "4.05E-02"}, {"measurement": "Diffusion Coefficient", "setting": "0.8µM, + FtsN, replicate Exp.3", "result": "7.15E-02"}, {"measurement": "Diffusion Coefficient", "setting": "0.8µM, + FtsZ, Mean, n=3 (WT), 8 (R286W)", "result": 0.0159}, {"measurement": "Diffusion Coefficient", "setting": "0.8µM, + FtsZ, replicate Exp.1", "result": "3.69E-02"}, {"measurement": "Diffusion Coefficient", "setting": "0.8µM, + FtsZ, replicate Exp.2", "result": "8.95E-03"}, {"measurement": "Diffusion Coefficient", "setting": "0.8µM, + FtsZ, replicate Exp.3", "result": "1.47E-02"}, {"measurement": "Diffusion Coefficient", "setting": "0.8µM, + FtsZ, replicate Exp.4", "result": "3.84E-03"}, {"measurement": "Diffusion Coefficient", "setting": "0.8µM, + FtsZ, replicate Exp.5", "result": "3.32E-03"}, {"measurement": "Diffusion Coefficient", "setting": "0.8µM, + FtsZ, replicate Exp.6", "result": "1.93E-02"}, {"measurement": "Diffusion Coefficient", "setting": "0.8µM, + FtsZ, replicate Exp.7", "result": "8.19E-14"}, {"measurement": "Diffusion Coefficient", "setting": "0.8µM, + FtsZ, replicate Exp.8", "result": "4.01E-02"}, {"measurement": "Dcoeff", "setting": "0.10 µM FtsA", "result": "5.20E-02", "unit": "µm2/s"}, {"measurement": "Dcoeff", "setting": "0.20 µM FtsA", "result": "6.48E-02", "unit": "µm2/s"}, {"measurement": "Dcoeff", "setting": "0.40 µM FtsA", "result": "1.35E-01", "unit": "µm2/s"}, {"measurement": "Dcoeff", "setting": "0.80 µM FtsA", "result": "1.14E-01", "unit": "µm2/s"}]}]}
